Molecular target: Nucleosome: Xenopus laevis histone octamer with Cy3-labeled H2A T120C on Widom 601 DNA (Xenopus laevis)
Assay: single-molecule fluorescence co-localisation with photobleaching step counting

In the case of “Alexa647-labeled Chd1p (from UniProt P32657 1-1468) (enzyme)”, the fraction of nucleosomes with one Chd1p is reported as 47.8%, the fraction of nucleosomes with three Chd1ps is reported as 21.7% and the fraction of nucleosomes with two Chd1ps is reported as 30.4%.

Source: doi:10.1101/376806
